Data published in patent US20020019514A1 (Harvard, published 2002).

Molecular target: T1, CIITA (expressed from the CIITA expression vector pCMV.CIITA) (UniProt P33076 1-1130)
T1 sequence (looked up): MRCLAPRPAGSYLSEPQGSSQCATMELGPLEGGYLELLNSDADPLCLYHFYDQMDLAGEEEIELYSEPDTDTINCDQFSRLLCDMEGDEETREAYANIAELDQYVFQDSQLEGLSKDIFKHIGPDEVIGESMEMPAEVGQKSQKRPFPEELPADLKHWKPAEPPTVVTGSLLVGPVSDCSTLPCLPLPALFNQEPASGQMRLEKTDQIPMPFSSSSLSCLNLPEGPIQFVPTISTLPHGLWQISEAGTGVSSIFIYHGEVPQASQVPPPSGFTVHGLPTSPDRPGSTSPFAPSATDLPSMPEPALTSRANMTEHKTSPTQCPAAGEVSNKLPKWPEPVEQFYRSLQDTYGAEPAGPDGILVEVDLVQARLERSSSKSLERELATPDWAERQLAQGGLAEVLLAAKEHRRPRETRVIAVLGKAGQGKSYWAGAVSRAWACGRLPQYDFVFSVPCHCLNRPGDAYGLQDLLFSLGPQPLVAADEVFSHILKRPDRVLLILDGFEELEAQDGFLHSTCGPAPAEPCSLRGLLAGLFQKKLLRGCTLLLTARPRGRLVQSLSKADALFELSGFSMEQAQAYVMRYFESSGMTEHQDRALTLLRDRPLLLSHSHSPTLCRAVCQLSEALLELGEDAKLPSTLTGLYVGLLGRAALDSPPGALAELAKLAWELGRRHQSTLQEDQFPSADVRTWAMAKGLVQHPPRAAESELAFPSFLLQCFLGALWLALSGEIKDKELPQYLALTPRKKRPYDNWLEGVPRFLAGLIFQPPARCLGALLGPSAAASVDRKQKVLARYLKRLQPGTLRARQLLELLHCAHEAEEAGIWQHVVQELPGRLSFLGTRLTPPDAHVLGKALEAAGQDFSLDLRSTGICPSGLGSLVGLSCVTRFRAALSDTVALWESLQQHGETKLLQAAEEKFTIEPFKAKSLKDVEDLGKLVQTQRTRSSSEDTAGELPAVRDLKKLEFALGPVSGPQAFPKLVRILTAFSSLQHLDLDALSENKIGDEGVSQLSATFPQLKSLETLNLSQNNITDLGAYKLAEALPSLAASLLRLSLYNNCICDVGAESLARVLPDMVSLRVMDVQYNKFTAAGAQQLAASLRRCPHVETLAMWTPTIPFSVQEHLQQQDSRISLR
Assay: cell-based or functional assay

B1: CIITA-Interacting Protein 104 (CIP104) (other)
chain: MKMLDESIRKEEEQQQHEAGVAPQPPLKEPFASLQSPFPTDTAPTTTAPAVAVTTTTTTTTTTTATQEEEKKPPPALPPPPPLAKFPPPSQPQPPPPPPPSPASLLKSLASVLEGQKYCYRGTGAAVSTRPGPLPTTQYSPGPPSGATALPPTSAAPSAQGSPQPSASSSSQFSTSGGPWARERRAGEEPVPGPMTPTQPPPPLSLPPARSESEVLEEISRACETLVERVGRSATDPADPVDTAEPADSGTERLLPPAQAKEEAGGVAAVSGSCKRRQKEHQKEHRRHRRACKDSVGRRPREGRAKAKAKVPKEKSRRVLGNLDLQSEEIQGREKSRPDLGGASKAKPPTAPAPPSAPAPSAQPTPPSASVPGKKAREEAPGPPGVSRADMLKLRSLSEGPPKELKIRLIKVESGDKETFIASEVEERRLRMADLTISHCAADVVRASRNAKVKGKFRESYLSPAQSVKPKINTEEKLPREKLNPPTPSIYLESKRDAFSPVLLQFCTDPRNPITVIRGLAGSLRLNLGLFSTKTLVEASGEHTVEVRTQVQQPSDENWDLTGTRQIWPCESSRSHTTIAKYAQYQASSFQESLQEEKESEDEESEEPDSTTGTPPSSAPDPKNHHIIKFGTNIDLSDAKRWKPQLQELLKLPAFMRVTSTGNMLSHVGHTILGMNTVQLYMKVPGSRTPGHQENNNFWSVNINIGPGDCEWFAVHEHYWETIRAFCDRHGVDYLTGSWWPILDDLYASNIPVYRFVQRPGDLVWINAGTVHWVQATGWCNNIAWNVGPLTAYQYQLALERYEWNEVKNVKSIVPMIHVSWNVARTVKISDPDLFKMIKFCLLQSMKHCQVQRESLVRAGKKIAYQGRVKDEPAYYCNDCDVEVFNILFVTSENGSRNTYLVHCEGCARRRSAGLQGVVVLEQYRTEELAQAYDAFTLAPASTSR
CIITA-mediated DRα-CAT expression (DRα promoter CAT reporter in cotransfected cells): ~30 fold
